“Also recorded” adds a separate entry of the source.
Columns and labels:
[1] = SPR membrane binding to POPC/POPS/PI(4,5)P2 vesicles; settings: SPR; for affinity for POPC/POPS/PI(4,5)P2 (77:20:3) relative to WT: Kd comparison, in words; for Kd: L1 chip, 23 °C, 20 mM Tris, pH 7.4, 0.16 M NaCl, POPC/POPS/PI(4,5)P2 (77:20:3), average ±S.D., n = 3, read-out: Kd for lipid binding, PC/PS/PI(4,5)P2; for PI(4,5)P2 selectivity over POPC/POPS (80:20) / binding to POPC/POPS/PI(4,5)P2 (77:20:3): RU/RUmax, 100 nM protein
Text: It has been generally thought that Smad2 and Smad3 are targeted to the activated TGF-β signaling complex by direct interaction with TβRI ([1], [2]) or via SARA ([7]). However, it has been shown that many cytosolic proteins that are targeted to membrane proteins or membrane-anchored signaling complexes have affinity for membrane lipids ([14]), phosphoinositides (PtdInsPs) in particular, and that their membrane recruitment is mediated by coincident lipid–protein and protein–protein interactions ([15], [16]). For most of these proteins, their PtdInsP specificity directs their membrane targeting behaviors: e.g., PI(4,5)P2-specific proteins are recruited to PM where the highest concentration of PI(4,5)P2 is found, whereas PI(3)P-specific proteins are targeted to PI(3)P-rich EEs ([17], [18]). To resolve uncertainty about the functional location of the activated TGF-β signaling complex, we thus explored the possibility that lipid-binding activity of Smad2 may play a role in specific targeting of Smad2 to the active TGF-β receptor complex either at the PM or at EEs. Lipid-binding activity of Smad proteins has not been reported to date. We thus measured the binding of bacterially expressed Smad2 to large unilamellar vesicles (LUVs) containing various lipids by surface plasmon resonance (SPR) analysis ([19], [20]). Lipid selectivity determined by SPR analysis is typically reported as the relative resonance unit (RU) values for different lipids at a given protein concentration ([21], [22]). Although simple and intuitive, this type of analysis can sometimes yield misleading and erroneous results because some proteins show widely different RU values when bound to different lipid surfaces. Thus, a more reliable parameter that represents the fraction of the membrane bound protein molecules at a given protein concentration would be a normalized value of RU/RUmax where RUmax indicates the maximal RU value when a given lipid surface is saturated with the protein molecules. We thus estimated RUmax for different lipid species by employing the highest protein concentration experimentally feasible (e.g., 1 μM) and determined RU/RUmax for different lipids at the protein concentration that allows robust comparison (e.g., 100 nM). Once the lipid selectivity has been determined by this semiquantitative approach, we then rigorously determined and compared Kd values for selected lipids for more accurate quantitative determination of lipid selectivity.
Figure 1 Membrane-binding properties of Smad2 FL protein and MH2 domain determined by SPR analysis.A, PtdInsP selectivity of Smad2-FL determined using POPC/POPS/PtdInsP (77:20:3 in mole ratio) LUVs coated on the L1 sensor chip. The protein concentration was 100 nM. PIP3 indicates PI(3,4,5)P3. B, determination of Kd for binding of Smad2 FL to different LUVs. The protein concentration was varied from 0 to 500 nM. C, PI(4,5)P2 concentration dependence of membrane binding of Smad2-FL determined using POPC/POPS/PI(4,5)P2 (77-x:20:x, x = 0–5 mol%) LUVs. The protein concentration was 100 nM. D, PtdInsP selectivity of the Smad2 MH2 domain determined using POPC/POPS/PtdInsP (77:20:3 in mole ratio) LUVs. The protein concentration was 100 nM. Normalized RU values (RU/RUmax) were used for all figures but (C) for more accurate determination of PtdInsP selectivity. RUmax values determined for different vesicles at 1 μM Smad2 were: 280 ± 20 for POPC/POPS/PI(4,5)P2 (77:20:3), 370 ± 10 for POPC/POPS/PI(3,4)P2 (77:20:3), 400 ± 15 for POPC/POPS/PI(3,4,5)P3 (or PIP3) (77:20:3), 400 ± 20 for POPC/POPS/PI(3)P (77:20:3), and 380 ± 20 for POPC/POPS (80:20). Only the association phases of the sensorgrams are shown and used for further analysis. Each set of sensorgrams shown in A and D are representatives of >5 independent measurements. Data points shown in B and C are the average ±S.D. values from triplicate measurements. […]

[2] = system: HeLa cells; assay: Nuclear translocation of EGFP-Smad2; format: cell-based; settings: HeLa cells with endogenous Smad2 suppressed, 10 ng/ml TGF-β for 1 h
Experimental: (§1) Two separate gels were used to accommodate all mutants. An empty vector transfection (vehicle) was used for a negative control for each gel. Glyceraldehyde 3-phosphate dehydrogenase (GAPDH) was used as a gel loading control. Data in A and B are quantified in Fig. S3A. C, TGF-β stimulated (10 ng/ml for 1 h) nuclear translocation of mouse EGFP-WT, -K420A, -W422A, -E425K, -Y426A, and -R427A/R428A transfected into HeLa cells whose endogenous Smad2 was suppressed by siRNA. For Smad2-WT, the effect of PI(4,5)P2 depletion was measured. Arrows indicate nuclear accumulation of EGFP-WT and EGFP-E425K. Scale bars indicate 10 μm. D, quantification of (C). (Inuc/Icyto) was calculated from total nuclear and cytosolic fluorescence intensity values. Blank and black bars indicate values before and after TGF-β stimulation. Error bars indicate S.D. values from >3 measurements (n = 10). E, Smad2 transcriptional activity measured by the luciferase assay. Blank and black bars indicate values before and after TGF-β stimulation. Error bars indicate S.D. values from >3 measurements (n = 10).
The ratio of nuclear to cytoplasmic protein was calculated from the fluorescence intensity of nucleus (Inuc) and the cytoplasm (Fcyto) in cross-section images of cells using the line profile function of Image-Pro Plus software (Media Cybernetics). Briefly, at least five different lines were drawn across the cross-sectional image of each cell and the average Inuc and ICyto values were calculated along the lines. Typically, more than ten cell images were analyzed for each data set to determine the average and SD values.

[3] = system: Smad2 transcriptional activity; assay: Dual luciferase reporter assay for Smad2 transcriptional activity; format: cell-based; settings: Smad2-suppressed HeLa cells, luciferase, 10 ng/ml TGF-β for 48 h
Experimental: as §1
HeLa cells were plated on 6-well plates at the density of ∼1.5 × 10^5 and treated with siRNA as described above. The reporter gene containing three TGF-β/activin response element (ARE) coupled with the luciferase gene (pGL2 3ARE-Lux: Addgene) was used for enhanced activity ([55]). On translocation into the nucleus, receptor-activated Smad2 associates with the DNA-binding protein FAST1 to form a transcriptional complex on the ARE of the Mix.2 promoter. After 24 h, the cell media were replaced with fresh media and cells were cotransfected with 375 ng pGL2 3ARE-Lux experimental vector, 37.5 ng pGL4.73[hRluc/SV40] internal control vector (Promega), 337.5 ng FAST1, and 750 ng of pcDNA 3.1 plasmid harboring Smad2 WT or mutant using the jetPRIME transfection system (Polyplus transfection) according to the manufacturer's protocols. After 24 h of transfection, cells were placed in fresh media and stimulated with 10 ng/ml TGF-β for 48 h. Then the cells were washed with phosphate buffer saline, and the dual luciferase reporter assay was performed according to the manufacturer's protocols (Promega). All 3ARE-Luc activity values were normalized using the pGL4.73[hRluc/SV40] values as a reference.

B1: Smad2-W422A: W422A mutant of full-length Smad2; specific PI(4,5)P2 binding-compromised (protein)
chain: MSSILPFTPPVVKRLLGWKKSAGGSGGAGGGEQNGQEEKWCEKAVKSLVKKLKKTGRLDELEKAITTQNCNTKCVTIPSTCSEIWGLSTANTVDQWDTTGLYSFSEQTRSLDGRLQVSHRKGLPHVIYCRLWRWPDLHSHHELKAIENCEYAFNLKKDEVCVNPYHYQRVETPVLPPVLVPRHTEILTELPPLDDYTHSIPENTNFPAGIEPQSNYIPETPPPGYISEDGETSDQQLNQSMDTGSPAELSPTTLSPVNHSLDLQPVTYSEPAFWCSIAYYELNQRVGETFHASQPSLTVDGFTDPSNSERFCLGLLSNVNRNATVEMTRRHIGRGVRLYYIGGEVFAECLSDSAIFVQSPNCNQRYGWHPATVCKIPPGCNLKIFNNQEFAALLAQSVNQGFEAVYQLTRMCTIRMSFVKGAGAEYRRQTVTSTPCWIELHLNGPLQWLDKVLTQMGSPSVRCSSMS
modifications: left off: His6, N-terminal, state not stated
**Q.** Which “affinity for POPC/POPS/PI(4,5)P2 (77:20:3) relative to WT” value [1] does the source give for B1 here?
**A.** three- to five-fold lower affinity

**Q.** And the Kd [1]?
**A.** 470 ± 96 nM

**Q.** And the “PI(4,5)P2 selectivity over POPC/POPS (80:20)” value [1]?
**A.** essentially no PI(4,5)P2 selectivity; also recorded: lost the PI(4,5)P2 selectivity

**Q.** And the “binding to POPC/POPS/PI(4,5)P2 (77:20:3)” value [1]?
**A.** greatly reduced binding

**Q.** What about the “nuclear transport after TGF-β stimulation” value (“nuclear transport” below) [2] of the same molecule?
**A.** did not show nuclear transport

**Q.** And the “Smad2 transcriptional activity after TGF-β stimulation” value (“Smad2 transcriptional activity” below) [3]?
**A.** much reduced activity even after TGF-β stimulation

B2: Smad2-Y426A: Y426A mutant of full-length Smad2; specific PI(4,5)P2 binding-compromised (protein)
chain: MSSILPFTPPVVKRLLGWKKSAGGSGGAGGGEQNGQEEKWCEKAVKSLVKKLKKTGRLDELEKAITTQNCNTKCVTIPSTCSEIWGLSTANTVDQWDTTGLYSFSEQTRSLDGRLQVSHRKGLPHVIYCRLWRWPDLHSHHELKAIENCEYAFNLKKDEVCVNPYHYQRVETPVLPPVLVPRHTEILTELPPLDDYTHSIPENTNFPAGIEPQSNYIPETPPPGYISEDGETSDQQLNQSMDTGSPAELSPTTLSPVNHSLDLQPVTYSEPAFWCSIAYYELNQRVGETFHASQPSLTVDGFTDPSNSERFCLGLLSNVNRNATVEMTRRHIGRGVRLYYIGGEVFAECLSDSAIFVQSPNCNQRYGWHPATVCKIPPGCNLKIFNNQEFAALLAQSVNQGFEAVYQLTRMCTIRMSFVKGWGAEARRQTVTSTPCWIELHLNGPLQWLDKVLTQMGSPSVRCSSMS
modifications: left off: His6, N-terminal, state not stated
**Q.** For B2, which “affinity for POPC/POPS/PI(4,5)P2 (77:20:3) relative to WT” value [1] is on record?
**A.** three- to five-fold lower affinity

**Q.** What about the Kd [1] of the same molecule?
**A.** 400 ± 44 nM

**Q.** What about the “PI(4,5)P2 selectivity over POPC/POPS (80:20)” value [1] of the same molecule?
**A.** essentially no PI(4,5)P2 selectivity; also recorded: lost the PI(4,5)P2 selectivity

**Q.** What about the “binding to POPC/POPS/PI(4,5)P2 (77:20:3)” value [1] of the same molecule?
**A.** greatly reduced binding

**Q.** And the “nuclear transport” value [2]?
**A.** did not show nuclear transport

**Q.** And the “Smad2 transcriptional activity” value [3]?
**A.** much reduced activity even after TGF-β stimulation

B3: Smad2- R427A/R428A: double mutant of full-length Smad2; PI(4,5)P2 and TβRI binding-compromised (protein)
chain: MSSILPFTPPVVKRLLGWKKSAGGSGGAGGGEQNGQEEKWCEKAVKSLVKKLKKTGRLDELEKAITTQNCNTKCVTIPSTCSEIWGLSTANTVDQWDTTGLYSFSEQTRSLDGRLQVSHRKGLPHVIYCRLWRWPDLHSHHELKAIENCEYAFNLKKDEVCVNPYHYQRVETPVLPPVLVPRHTEILTELPPLDDYTHSIPENTNFPAGIEPQSNYIPETPPPGYISEDGETSDQQLNQSMDTGSPAELSPTTLSPVNHSLDLQPVTYSEPAFWCSIAYYELNQRVGETFHASQPSLTVDGFTDPSNSERFCLGLLSNVNRNATVEMTRRHIGRGVRLYYIGGEVFAECLSDSAIFVQSPNCNQRYGWHPATVCKIPPGCNLKIFNNQEFAALLAQSVNQGFEAVYQLTRMCTIRMSFVKGWGAEYAAQTVTSTPCWIELHLNGPLQWLDKVLTQMGSPSVRCSSMS
modifications: left off: His6, N-terminal, state not stated
**Q.** For B3, which “affinity for POPC/POPS/PI(4,5)P2 (77:20:3) relative to WT” value [1] is on record?
**A.** three- to five-fold lower affinity

**Q.** And the Kd [1]?
**A.** 340 ± 53 nM

**Q.** What about the “PI(4,5)P2 selectivity over POPC/POPS (80:20)” value [1] of the same molecule?
**A.** essentially no PI(4,5)P2 selectivity; also recorded: lost the PI(4,5)P2 selectivity

**Q.** And the “binding to POPC/POPS/PI(4,5)P2 (77:20:3)” value [1]?
**A.** greatly reduced binding

**Q.** What about the “nuclear transport” value [2] of the same molecule?
**A.** did not show nuclear transport

**Q.** And the “Smad2 transcriptional activity” value [3]?
**A.** much reduced activity even after TGF-β stimulation

B4: EGFP-Smad2 WT: mouse EGFP-Smad2 wild type transfected into HeLa cells (protein, UniProt Q62432 2-467, looked up)
Mothers against …: SSILPFTPPVVKRLLGWKKSAGGSGGAGGGEQNGQEEKWCEKAVKSLVKKLKKTGRLDELEKAITTQNCNTKCVTIPSTCSEIWGLSTANTVDQWDTTGLYSFSEQTRSLDGRLQVSHRKGLPHVIYCRLWRWPDLHSHHELKAIENCEYAFNLKKDEVCVNPYHYQRVETPVLPPVLVPRHTEILTELPPLDDYTHSIPENTNFPAGIEPQSNYIPETPPPGYISEDGETSDQQLNQSMDTGSPAELSPTTLSPVNHSLDLQPVTYSEPAFWCSIAYYELNQRVGETFHASQPSLTVDGFTDPSNSERFCLGLLSNVNRNATVEMTRRHIGRGVRLYYIGGEVFAECLSDSAIFVQSPNCNQRYGWHPATVCKIPPGCNLKIFNNQEFAALLAQSVNQGFEAVYQLTRMCTIRMSFVKGWGAEYRRQTVTSTPCWIELHLNGPLQWLDKVLTQMGSPSVRCSSMS
modifications: EGFP fusion
notes: mouse EGFP-Smad2 wild type transfected into HeLa cells
**Q.** Which “nuclear transport” value [2] does the source give for B4 here?
**A.** moved from the cytoplasm to the nucleus
